We go through 19 molecules from patent publication US20180134781A1 (Regeneron, published 2018).

The labels stand for the following.
B1: H4H15354P2 (antibody, human IgG4, V domains shown)
VH: QVQLVESGGGVVQPGRSLRLSCTASGFTFNNYGIHWVRQAPGKGLEWVAVISYDGSNKFYAESVRGRFTISRDNSRNTLFLQMISLRGEDSAVYYCAKDRPYYDILTAHYPSDYYFYAMDVWGHGTTVTVSS
VL: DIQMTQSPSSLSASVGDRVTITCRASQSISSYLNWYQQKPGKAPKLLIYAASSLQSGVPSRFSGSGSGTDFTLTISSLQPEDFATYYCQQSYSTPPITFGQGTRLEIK
notes: human IgG4 Fc (H4H prefix)
B2: H4H15334P (antibody, human IgG4, V domains shown)
VH: QVQLQESGPGLVKPSQTLSLTCTVSGGSINSGGYYWNWIRQHPGKGLEWIGYIYYSGSTYFNPSLKSRVTISIDTSKNQFSLKLSSVTAADTAVYYCAREGIYAFDYWGQGTLVTVSS
VL: DIQMTQSPSSLSASVGDRVTITCRASQGIRNDLGWYQQKPGKAPKRLIYSASSLQSGVPSRFGGSGSGTEFTLTISSLQPEDFATYYCLQHNSYPWTFGQGTKVEIK
notes: human IgG4 Fc (H4H prefix)
B3: H4H15314P2 (antibody, human IgG4, V domains shown)
VH: QVQLVQSGAEVKKPGASVKVSCKASGYTFTSYDINWVRQATGQGLEWMGWMNPNGDNTGYAQKFQGRVTMTGDTSISTAYMELSSLRSEDTAVYYCAREGIWGFDPWGQGTLVTVSS
VL: B2 VL with G28D, S50A, G63S, Y86F, S93T, Y94F, W96R
notes: human IgG4 Fc (H4H prefix)
B4: H4H15346P (antibody, human IgG4, V domains shown)
VH: EVQLVESGGGLVQPGGSLRLSCAASGFTFSNYAMSWVRQAPGKGLEWVSTISDTGGSTYYADSVKGRFALSRDNSRNTLYLQMNSLRAEDTAVYYCAKEGPPDYWGQGTLVTVSS
VL: EIVLTQSPATLSLSPGERATLSCRTSQSVSIYLAWYQQKPGQAPRLLIYDASKRATGIPARFSGRGSGTDFTLTISSLEPEDFAVYYCQQRSNWPLTFGQGTRLEIK
notes: human IgG4 Fc (H4H prefix)
B5: H4H15330P (antibody, human IgG4, V domains shown)
VH: QVQLVESGGGLVKPGGSLRLSCAASGFTFSDYYMSWIRQAPGKGLEWISHISGSGRTTHYADSMKGRFTISRDNAKNSLYLQMNSLRAEDTAVYYCVREGGFNWNYEGTFDIWGQGTMVTVSS
VL: DIVMTQTPLSSPVTLGQPASISCRSSQSLLHSDQNTYLSWLHQRPGQPPRLLIYKISNRFSGVPDRFSGSGAGTDFTLKISRVEAEDVGIYYCMQGTQFPLTFGGGTKVEIK
notes: human IgG4 Fc (H4H prefix)
B6: H4H15318P (antibody, human IgG4, V domains shown)
VH: QVQLVESGGGVVQPGRSLRLSCTASGFTFGNFGIHWVRQAPGKGLEWVAVISYDGTDKFYADPVKGRFIISRDNSMNILYLQMNSLRAEDTAVYYCAKDGEMELRGYYYYYGMDVWGQGTTVTVSS
VL: DIQMTQSPSSVSASVGDRVTITCRASQGINTWLAWYQQKPGTAPKLLIFAASSLESGVPSRFSGSGFGTDFTLTISSLQSEDLATYFCQQVHSPPYTFGQGTKLEIK
notes: human IgG4 Fc (H4H prefix)
B7: H4H15347P (antibody, human IgG4, V domains shown)
VH: EVQLVESGGGLVQPGGSLRLSCAASGFTFRNYAMNWARQAPGKGLEWVSGITGSGGATYYADSVKGRFTISRENSKNTLFLQMDTLRAEDTAVYYCAKDRRYFPTSGGPQWGQGTLVTVSS
VL: DIVMTQSPLSLPVTPGEPASISCRSSRSLLHSSGYNYLDWYLQKPGQSPQLLLYLGSNRASGVPDRFSGSGSGTYFTLKISRVDAEDVGVYYCMQALQTPWTFGQGTKVEIK
notes: human IgG4 Fc (H4H prefix)
B8: H4H15367P2 (antibody, human IgG4, V domains shown)
VH: QVQLVESGGGVVQPGRSVRLSCGASGFTFKYYGMHWVRQAPGKGLEWVAVIWYDGRNKFYADSVKGRFTISRDNSKNTVNLEMNNLRAEDTAIYYCARDGGTADGDYFDYWGQGTLVTVSS
VL: not shown
notes: human IgG4 Fc (H4H prefix)
B9: H4H15355P2 (antibody, human IgG4, V domains shown)
VH: QVQLVESGGGVVQPGRSLRLSCAASGFTFTNYAMHWVRQAPGKGLEWVAVISYDGSHTYFADSVKGRFTMSRDNSKNTISLQMNSLRPEDTAVYFCAGGGATTWFYFYGLDVWGQGTTVTVSS
VL: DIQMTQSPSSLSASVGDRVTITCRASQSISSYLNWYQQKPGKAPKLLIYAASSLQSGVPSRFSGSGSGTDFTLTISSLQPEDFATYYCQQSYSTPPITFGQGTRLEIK
notes: human IgG4 Fc (H4H prefix)
B10: H4H15321P (antibody, human IgG4, V domains shown)
VH: EVQLVESGGGLVQPGGSLRLSCAASGFTFSSYAMSWVRQAPGKGLEWVSAITGSGGRTYYADSVKGRFTISRDNAKNTLYLQMNSLRAEDTAVYYCAKNFPFDYWGQGTLVTVSS
VL: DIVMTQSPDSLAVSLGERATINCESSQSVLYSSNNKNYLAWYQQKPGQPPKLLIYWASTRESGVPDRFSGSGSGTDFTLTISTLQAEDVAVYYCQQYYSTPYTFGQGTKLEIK
notes: human IgG4 Fc (H4H prefix)
B11: H4H15345P (antibody, human IgG4, V domains shown)
VH: B10 VH with S31T, A50V, T52S, G55F, G56I, R57S, A75S, N84T, F100S
VL: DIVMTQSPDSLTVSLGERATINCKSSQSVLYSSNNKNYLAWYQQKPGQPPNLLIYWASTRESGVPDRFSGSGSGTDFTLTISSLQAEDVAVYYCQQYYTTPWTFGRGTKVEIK
notes: human IgG4 Fc (H4H prefix)
B12: H4H15363P2 (antibody, human IgG4, V domains shown)
VH: EVQLVESGGGLVQPGGSLRLSCAASGFTFSNYAMSWVRQVPGKGLEWVSTISGSGGSTYYADSVKGRFTISRDNSKNSLYLQMNSLRAEDTAVYYCAKLVRGVIGWFDPWGQGTLVTVSS
VL: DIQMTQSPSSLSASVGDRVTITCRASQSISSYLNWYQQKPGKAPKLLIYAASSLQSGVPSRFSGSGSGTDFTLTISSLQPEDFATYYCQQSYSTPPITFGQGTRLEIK
notes: human IgG4 Fc (H4H prefix)
B13: H4H15335P (antibody, human IgG4, V domains shown)
VH: QVQLVESGGGVVQPGRSLRLSCAASGFTFNNYGIHWVRQAPGKGLEWVAVISYDESNKYYADSVKGRFTISRDNSKNTLYLQMNSLRAEDTAVYYCAKDIRIAARRHYYYYGMDVWGQGTTVTVSS
VL: DIQMTQSPSSVSASVGDRVTITCRASQGISRWLAWYQQKPGKAPKLLIYAASSLESGVPARFSGSGSGTDFTLTISSLQPEDFATYYCQQANSFPITFGPGTKVDIK
notes: human IgG4 Fc (H4H prefix)
B14: H4H15323P (antibody, human IgG4, V domains shown)
VH: EVQLVESGGGLVQPGGSLRLSCAASGFTFSSYAMTWVRQAPGKGLEWVSAISGSGGSTYYTDSVKGRFTLSRDNSKNTLYLQMNSLRAEDTAVYYCAKSDYSNTIYWYYGMDVWGQGTTVTVSS
VL: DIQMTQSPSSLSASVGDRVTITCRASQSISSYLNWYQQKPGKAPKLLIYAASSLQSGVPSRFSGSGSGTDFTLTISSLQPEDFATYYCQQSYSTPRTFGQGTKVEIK
notes: human IgG4 Fc (H4H prefix)
B15: H4H15357P2 (antibody, human IgG4, V domains shown)
VH: EVQLVESGGGLVKPGGSLRLSCTASGFTFGNAWMSWVRQAPGKGLEWVGLIKGKTDGGTTNYAAPVKGRFTISRDDSKNTLYLHLNSLRTEDTALYYCTTDQVELRQYYYYGLDVWGQGTTVTVSS
VL: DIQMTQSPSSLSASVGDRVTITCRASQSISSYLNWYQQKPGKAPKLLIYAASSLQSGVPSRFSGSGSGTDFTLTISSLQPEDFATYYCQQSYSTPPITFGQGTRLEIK
notes: human IgG4 Fc (H4H prefix)
B16: H4H15361P2 (antibody, human IgG4, V domains shown)
VH: EVQLVESGGGLVQPGRSLRLSCTASGFSFGDNAMGWVRQAPGKGLEWVSFIRRKASGGTTEYAASVKGRFTISRDDSKSIAYLQMNSLKTEDTGVYYCTRGGAVYGYWGQGTLVTVSS
VL: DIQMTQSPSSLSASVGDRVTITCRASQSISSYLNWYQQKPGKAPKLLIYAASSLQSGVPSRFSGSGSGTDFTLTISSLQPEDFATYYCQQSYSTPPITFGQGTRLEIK
notes: human IgG4 Fc (H4H prefix)
B17: H4H15362P2 (antibody, human IgG4, V domains shown)
VH: QVQLVESGGGVVQPGRSLRLSCAASGFTFSSYGMHWVRQAPGKGLEWVAVIWYDGSNKYYADSVKGRFTISRDNSKNTLYLQMNSLRAEDTAVYYCARDWVRFLEWFPHFDYWGQGTLVTVSS
VL: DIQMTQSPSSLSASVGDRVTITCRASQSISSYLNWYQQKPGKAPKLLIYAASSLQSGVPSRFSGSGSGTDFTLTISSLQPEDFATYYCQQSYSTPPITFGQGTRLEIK
notes: human IgG4 Fc (H4H prefix)
B18: H4H15350P2 (antibody, human IgG4, V domains shown)
VH: EVQLVESGGGLVQPGGSLRLSCAASGFTFSSFRMTWVRQAPGKGLEWVANIKQDGSEKYYVDSVKGRFTISRDNAKNSLYLQMNSLRAEDTAVYYCARGGGIAAYWGQGTLVTVSS
VL: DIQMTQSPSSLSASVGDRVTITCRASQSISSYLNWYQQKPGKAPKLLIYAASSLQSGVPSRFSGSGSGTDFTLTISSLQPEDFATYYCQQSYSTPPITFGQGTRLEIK
notes: human IgG4 Fc (H4H prefix)
B19: H4H15369P2 (antibody, human IgG4, V domains shown)
VH: EVQLVESGGGLVQPGGSLRLSCVGTGFTFSNYAMSWVRQAPGKGLEWVSGISGRSSGTFYADSVKGRFTISRDNSQNTLYLQMNSLGAEDTAVYYCAKVSRYNWDYVPFDFWGQGTLVTVSS
VL: not shown
notes: human IgG4 Fc (H4H prefix)

Changes are numbered by the printed parent chain. In names and notes the source's numbering stands.

One assay addresses T1, monkey ANGPTL8 expressed with C-terminal mouse IgG2a Fc tag (cynomolgus monkey).
T1 construct: also called MfANGPTL8-mFc; mfANGPTL8-mFc
T1 chain: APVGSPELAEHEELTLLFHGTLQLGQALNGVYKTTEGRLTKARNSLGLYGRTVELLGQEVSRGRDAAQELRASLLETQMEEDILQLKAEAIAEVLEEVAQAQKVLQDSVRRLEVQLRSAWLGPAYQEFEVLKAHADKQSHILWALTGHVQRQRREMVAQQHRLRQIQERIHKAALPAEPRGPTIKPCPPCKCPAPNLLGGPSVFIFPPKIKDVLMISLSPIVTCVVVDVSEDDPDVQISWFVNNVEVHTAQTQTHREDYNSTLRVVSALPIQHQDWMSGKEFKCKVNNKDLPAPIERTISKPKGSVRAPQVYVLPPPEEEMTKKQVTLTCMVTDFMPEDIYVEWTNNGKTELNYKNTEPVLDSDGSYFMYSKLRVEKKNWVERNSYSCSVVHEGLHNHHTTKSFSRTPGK
The experiment in a line: BLI (Octet HTX), MfANGPTL8-mFc captured on AMC sensor. The method, then:
(§1) Binding of ANGPTL8 antibodies to human and monkey ANGPTL8 proteins was investigated using Bio-layer Interferometry with an Octet HTX biosensor platform (ForteBio, A Division of Pall Life Sciences). All experiments were performed at 25° C. in 10 mM HEPES pH 7.4, 150 mM NaCl, 0.05% v/v Surfactant Tween-20, and 1 mg/ml BSA with the reaction multiwell plate agitated at 1000 rpm. Approximately 1.6 nm of human ANGPTL8 produced with a C-terminal mouse IgG2a Fc tag (hANGPTL8-mFc; SEQ ID NO: 340) or cynomolgus monkey ANGPTL8 produced with a C-terminal mouse IgG2a Fc tag (MfANGPTL8-mFc; SEQ ID NO: 341) was captured onto anti-mFc (AMC) Octet biosensors by submerging the sensors into wells containing 10 μg/mL of each protein for 4 minutes. Under the same conditions a negative control protein with the same mFc tag (hLDLR-mFc) was also coupled to the AMC sensor. All four sensors, […] and one blank, were then submerged into wells containing 100 nM of different ANGPTL8 monoclonal antibodies or an isotype control for 4 minutes.
In general terms: BLI is a label-free optical method that tracks binding on a fibre tip over time.
For the molecule B1, the binding result is “no binding (tested: background 0.03 nm at 100 nM mAb)”.
Same read-out and setting: the same measure for B2: “no binding (tested: background 0.03 nm at 100 nM mAb)”.
Still for that read-out and setting: the same measure for B3: “no binding (tested: background 0.03 nm at 100 nM mAb)”; for B4: “no binding (tested: background 0.03 nm at 100 nM mAb)”.

In the next assay the target is T2, hLDLR-mFc (negative control protein with the same mFc tag) (human, UniProt P01130 22-788).
T2 construct: also called Irrelevant control; not shown: mFc tag ('the same mFc tag', mouse IgG2a Fc)
T2 sequence (P01130 22-788): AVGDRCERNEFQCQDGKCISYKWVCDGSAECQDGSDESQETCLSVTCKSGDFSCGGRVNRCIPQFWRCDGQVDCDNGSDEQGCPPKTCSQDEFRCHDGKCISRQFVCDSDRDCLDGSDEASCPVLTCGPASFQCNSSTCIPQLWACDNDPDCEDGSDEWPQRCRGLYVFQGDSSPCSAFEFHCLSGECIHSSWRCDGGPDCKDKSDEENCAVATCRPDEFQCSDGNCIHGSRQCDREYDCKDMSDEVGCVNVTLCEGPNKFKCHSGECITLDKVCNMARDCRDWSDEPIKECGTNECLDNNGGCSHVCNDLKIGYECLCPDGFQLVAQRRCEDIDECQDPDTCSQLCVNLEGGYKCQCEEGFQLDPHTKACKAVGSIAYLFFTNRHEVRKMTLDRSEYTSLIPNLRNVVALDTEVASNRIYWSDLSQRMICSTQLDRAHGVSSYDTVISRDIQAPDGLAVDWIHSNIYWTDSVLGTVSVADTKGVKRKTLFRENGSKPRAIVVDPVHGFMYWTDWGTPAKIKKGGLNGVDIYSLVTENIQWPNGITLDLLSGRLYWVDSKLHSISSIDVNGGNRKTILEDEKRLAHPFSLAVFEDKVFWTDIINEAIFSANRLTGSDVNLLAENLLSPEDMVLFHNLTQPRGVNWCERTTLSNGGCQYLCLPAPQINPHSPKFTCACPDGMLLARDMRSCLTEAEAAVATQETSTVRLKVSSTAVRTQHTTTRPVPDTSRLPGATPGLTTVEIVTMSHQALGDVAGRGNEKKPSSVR
The experiment in a line: BLI (Octet HTX), hLDLR-mFc captured on AMC sensor. The procedure:
as §1
As to B5, the binding result is recorded as “no binding (tested: 0.03 nm at 100 nM mAb)”.
Same read-out and setting: the same measure for B6: “no binding (tested: 0.03 nm at 100 nM mAb)”; for B1: “no binding (tested: 0.03 nm at 100 nM mAb)”.
On the same count and under the same terms, the same measure for B7: “no binding (tested: 0.03 nm at 100 nM mAb)”.
As for B8, the binding result is “no binding (tested: 0.03 nm at 100 nM mAb)”.
The same measure, in the same setting: under B9 stands “no binding (tested: 0.03 nm at 100 nM mAb)”.
The same measure, in the same setting: under B10 stands “no binding (tested: 0.03 nm at 100 nM mAb)”.
Still for that read-out and setting: the same measure for B11: “no binding (tested: 0.03 nm at 100 nM mAb)”.
B12: the binding result is reported as “no binding (tested: 0.03 nm at 100 nM mAb)”.
Still for that read-out and setting: under B2 stands “no binding (tested: 0.03 nm at 100 nM mAb)”; under B3, “no binding (tested: 0.03 nm at 100 nM mAb)”; under B13, “no binding (tested: 0.03 nm at 100 nM mAb)”.
On the same count and under the same terms, the same measure for B14: “no binding (tested: 0.03 nm at 100 nM mAb)”; for B15: “no binding (tested: 0.03 nm at 100 nM mAb)”; for B16: “no binding (tested: 0.03 nm at 100 nM mAb)”.
Same read-out and setting: under B17 stands “no binding (tested: 0.03 nm at 100 nM mAb)”; under B4, “no binding (tested: 0.03 nm at 100 nM mAb)”; under B18, “no binding (tested: 0.03 nm at 100 nM mAb)”.
In the case of B19, the binding result is “no binding (tested: 0.03 nm at 100 nM mAb)”.
